For experiment [1], the target named is T1, human IL-1β (human, UniProt P01584 117-269).
T1 construct: mature; also called mature human IL-1β; Interleukin-1β
Nature of the experiment: competition ELISA on coated human IL-1β against biotinylated Mu007, average of three experiments. As for the experimental part:
(§1) Wells of 96-well ELISA plates (Nunc-lmmuno plate, Cat # 439454, NalgeNunc) were coated with 100 μL of 0.5. μg/mL of human IL-1β in 0.2M sodium carbonate-bicarbonate buffer (pH 9.4) overnight at 4° C., washed with Wash Buffer, blocked with Superblock blocking buffer for 30 min at 37° C., and washed again with Wash Buffer. A mixture of biotinylated Mu007 (0.16 μg/mL final concentration) and competitor antibody (Mu007, Hu007, or Hu007 analogs starting at 100 μg/mL final concentration and serial 3-fold dilutions) in ELISA Buffer were added in triplicate in a final volume of 100 μL per well. As a no-competitor control, 100 μL of 0.16 μg/mL biotinylated Mu007 was used. As a background control, 100 gLL of ELISA Buffer was used. ELISA plates were incubated at 37° C. for 2 hr. After washing the wells with Washing Buffer, 100 μL of 1 μg/mL HRP-conjugated streptavidin (Jackson ImmunoResearch) was added to each well. ELISA plates were incubated at room temperature for 30 min and washed with Washing Buffer. For color development, 100 μL/well of ABTS substrate was added. Color development was stopped by adding 100 μL/well of 2% oxalic acid. Absorbance was read at 415 nm.
Mu007, Hu007 and Hu007 analogs competed with biotinylated Mu007 in a concentration-dependent manner. […]

Experiment [2] concerns the target T1, human IL-1β. The experiment in a line: competition ELISA on coated human IL-1β against biotinylated Mu007, Exp. A. As to the method: as §1
(§2) Mu007, Hu007 and Hu007 analogs competed with biotinylated Mu007 in a concentration-dependent manner. The IC₅₀ values of Mu007 and Hu007 in three independent ELISA competition experiments, obtained using the computer software Prism (GraphPad Software Inc., San Diego, Calif.) are shown in Table 1. The relative binding of Hu007 was on average 89% of Mu007.
For orientation: An ELISA detects its analyte on a solid surface through an enzyme-linked reagent.

In experiment [3] the target is T1, human IL-1β. The experiment in a line: competition ELISA on coated human IL-1β against biotinylated Mu007, Exp. B. As to the method:
as §1, §2

In experiment [4] the target is T1, human IL-1β. The experiment in a line: competition ELISA on coated human IL-1β against biotinylated Mu007, Exp. C. As for the experimental part: as §1, §2
Experiment [5] deals with T1, human IL-1β. Nature of the experiment: cell-based or functional assay.
The next experiment addresses T2, cynomolgus monkey IL-1β (cynomolgus monkey, UniProt P79182 117-268).
T2 construct: also called Cynomolgus IL-1β
T2 sequence (looked up): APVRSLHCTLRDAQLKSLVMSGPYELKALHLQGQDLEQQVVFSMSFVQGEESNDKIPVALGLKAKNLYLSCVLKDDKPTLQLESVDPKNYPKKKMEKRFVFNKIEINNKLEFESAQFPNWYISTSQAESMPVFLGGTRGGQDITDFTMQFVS
The experiment in a line: BIAcore, antibody captured on anti-IgG CM5 chip, IL-1β flowed. As for the experimental part:
(§3) Affinities and specificities of both Hu007 and Mu007 were determined using BlAcore measurements. BIAcore™ is an automated biosensor system that measures molecular interactions. (Karlsson, et al. (1991) J. Immunol. Methods 145: 229-240). In these experiments antibody was immobilized at low density on a BIAcore™ chip. Ethyl-dimethylaminopropyl-carbodiimide (EDC) was used to couple reactive amino groups to purified goat anti-human IgG or goat anti-rabbit IgG to a flow cell of a carboxy-methyl (CM5) BIAcore™ sensor chip. Goat IgG was diluted in sodium acetate buffer, pH 4.0, and immobilized on a flow cell of a CM5 chip using EDC to yield 1000 response units. Unreacted sites were blocked with ehanolamine. A flow rate of 60 μL/min was used. Multiple binding/elution cycles were performed by injection a 100 μL solution of 15 μg/mL Mu007 or Hu007 followed by human IL-1β, mouse IL-1β, rat IL-1β, cynomolgus monkey IL-1β, porcine IL-1β, human IL-1 receptor antagonist, and human IL-1α at decreasing concentrations for each cycle (e.g., 1500, 750, 375, 188, 94, 47, 23.5, 12, and 0 picomolar). Elution was performed with glycine-HCl, pH 1.5. BIAevaluation™ was used to analyze the kinetic data. Table 2 depicts the affinities of Hu007 and Mu007 for human and cynomolgus IL-1β. […] Cynomolgus and porcine IL-1β had 100% binding to Hu007 relative to human IL-1β.
In general terms: Surface plasmon resonance follows binding to a sensor surface in real time, without labels.

Experiment [6] addresses T1, human IL-1β. Described as above. As to the method: as §3
In experiment [7] the target is T1, human IL-1β. The experiment in a line: BIAcore (Example 13). As to the method:
(§4) Affinities and specificities of several Hu007 analogs were determined using BIAcore measurements. BIAcore™ is an automated biosensor system that measures molecular interactions. (Karlsson, et al. (1991) J. Immunol. Methods 145: 229-240). In these experiments antibody was immobilized at low density on a BIAcore™ chip. Ethyl-dimethylaminopropyl-carbodiimide (EDC) was used to couple reactive amino groups to protein A to a flow cell of a carboxy-methyl (CM5) BIAcore™ sensor chip. Protein A was diluted in sodium acetate buffer, pH 4.5, and immobilized on a flow cell of a CM5 chip using EDC to yield approximately 1000 response units. Unreacted sites were blocked with ethanolamine. A flow rate of 60 μl/min was used. Multiple binding/elution cycles were performed by injection of 10 μl of a 5 μg/mL Hu007 solution, and heavy chain CDR2 analogs N55D, N55S, N55Q, G56A, and G56V, followed by human IL-1β at decreasing concentrations for each cycle (e.g. 1500, 750, 375, 188, and […]). Elution was performed with glycine-HCl, pH 1.5. BIAevaluation™ was used to analyze the kinetic data. Table 5 depicts the affinities of Hu007 and the various Hu007 analogs for human IL-1β.

For experiment [8], the target named is T1, human IL-1β. Nature of the experiment: cell-based or functional assay. This is another data set of the same source.
The target in experiment [9] is T1, human IL-1β. The experiment in a line: BIAcore, antibody captured on protein A CM5 chip, human IL-1β flowed. As for the experimental part: as §4

What is called IC50 is the concentration at which inhibition is half-maximal. As usually defined, the Kd is the equilibrium constant for the complex coming apart.

Changes are numbered by the printed parent chain. Names may count otherwise.

B1: mouse monoclonal antibody Mu007 (antibody, V domains shown)
VH: QVQLVQSGAEVKKPGASVKVSCKVSGYTFSRYWIEWVRQAPGKGLEWIGEILPGNGNINYNEKFKGKATITADTSTDTAYMELSSLRSEDTAVYYCSTIYYDYDQGFTYWGQGTLVTVSA
VL: DIKMTQSPSSMYASLGERVTITCKASQDIDRYLSWFQQKPGKSPKTLIYRVKRLVDGVPSRFSGSASGQDYSLTISSLQYEDMGIYYCLQYDEFPYTFGGGTKLEIK
Take B1: the IC50 in the experiment with human IL-1β [1] came out at 0.4 µg/mL; with human IL-1β [2] it was 0.4 µg/mL; with human IL-1β [3] it was 0.4 µg/mL; with human IL-1β [4], 0.39 µg/mL. In addition, the “IC50, inhibition of IL-1β stimulated proliferation of T1165.17 cells (3H-thymidine), average of three experiments” value with human IL-1β [5] worked out at 0.22 nM. In addition, the results for the Kd with cynomolgus monkey IL-1β and with human IL-1β [6] were 0.0073 nM and 0.0062 nM, respectively.

B2: Hu007 analog N55S (antibody, human IgG1, kappa, V domains shown)
VH: B1 VH with N55S, A120S
VL: DIQMTQSPSSLSASVGDRVTITCKASQDIDRYLSWFQQKPGKAPKSLIYRVKRLVDGVPSRFSGSASGTDYTLTISSLQPEDFATYYCLQYDEFPYTFGQGTKLEIKR
notes: IgG1; also called heavy chain CDR2, N55S
Regarding B2, the “fold of the binding affinity of Hu007” value in the experiment with human IL-1β [7] is no more than 3 fold. For the same molecule, the “IC50, inhibition of human IL-1β stimulated proliferation” value with human IL-1β [8] was 184 Picomolar. In the experiment with human IL-1β [9], this molecule showed a Kd of 0.0281 nM.

B3: Hu007 analog G56A (antibody, human IgG1, kappa, V domains shown)
VH: B1 VH with G56A, A120S
VL: B2 VL
notes: IgG1; Heavy chain of Hu007 with G56A, co-transfected with the WT Hu007 light chain
In the case of B3, in the experiment with human IL-1β [8], the “IC50, inhibition of human IL-1β stimulated proliferation” value is 184 Picomolar. For the same molecule, in the experiment with human IL-1β [9], binding was characterised by a dissociation constant (Kd) of 0.0336 nM.

B4: Hu007 analog G56V (antibody, human IgG1, kappa, V domains shown)
VH: B1 VH with G56V, A120S
VL: B2 VL
notes: IgG1; Heavy chain of Hu007 with G56V, co-transfected with the WT Hu007 light chain
Turning to B4, the “IC50, inhibition of human IL-1β stimulated proliferation” value with human IL-1β [8] is 395 Picomolar. The same molecule showed a Kd with human IL-1β [9] of 0.0732 nM.

B5: Hu007 analog N55Q (antibody, human IgG1, kappa, V domains shown)
VH: B1 VH with N55Q, A120S
VL: B2 VL
notes: IgG1; Heavy chain of Hu007 with N55Q, co-transfected with the WT Hu007 light chain
Take B5: the “IC50, inhibition of human IL-1β stimulated proliferation” value with human IL-1β [8] was determined as 2500 Picomolar. This molecule gave a Kd with human IL-1β [9] of 0.257 nM.

B6: Hu007 analog N55D (antibody, human IgG1, kappa, V domains shown)
VH: B1 VH with N55D, A120S
VL: B2 VL
notes: IgG1; Heavy chain of Hu007 with N55D, co-transfected with the WT Hu007 light chain; It mimics fully deamidated Hu007; also called heavy chain CDR2 analog N55D
For B6, the “fold loss of binding affinity against Hu007” value with human IL-1β [7] is roughly 15 fold. The “IC50, inhibition of human IL-1β stimulated proliferation” value with human IL-1β [8] was determined as 1100 Picomolar. For the same molecule, the affinity in the experiment with human IL-1β [9], expressed as Kd, was 0.149 nM.

For the origin of these results see patent US20050070692A1 (published 2005).
